Results on four molecules are retold here after publication PMC8847575, “HSL1 and BAM1/2 impact epidermal cell development by sensing distinct signaling peptides” (Nature Communications, 2022).

Test [1] deals with HSL1 (HAESA-LIKE 1) ectodomain (Arabidopsis) (UniProt Q9SGP2). In words: ITC; peptide (75 to 600 µM) injected into 10 to 30 µM HSL1 or BAM1 ectodomain in the cell; 25 °C; 20 mM sodium citrate pH 5.0, 150 mM NaCl; N fitted to 1. (In general: Isothermal titration calorimetry measures the heat released or taken up as one component is titrated into another.)
Chain of HSL1 (HAESA-LIKE 1) ectodomain (Arabidopsis) (Q9SGP2 17-618): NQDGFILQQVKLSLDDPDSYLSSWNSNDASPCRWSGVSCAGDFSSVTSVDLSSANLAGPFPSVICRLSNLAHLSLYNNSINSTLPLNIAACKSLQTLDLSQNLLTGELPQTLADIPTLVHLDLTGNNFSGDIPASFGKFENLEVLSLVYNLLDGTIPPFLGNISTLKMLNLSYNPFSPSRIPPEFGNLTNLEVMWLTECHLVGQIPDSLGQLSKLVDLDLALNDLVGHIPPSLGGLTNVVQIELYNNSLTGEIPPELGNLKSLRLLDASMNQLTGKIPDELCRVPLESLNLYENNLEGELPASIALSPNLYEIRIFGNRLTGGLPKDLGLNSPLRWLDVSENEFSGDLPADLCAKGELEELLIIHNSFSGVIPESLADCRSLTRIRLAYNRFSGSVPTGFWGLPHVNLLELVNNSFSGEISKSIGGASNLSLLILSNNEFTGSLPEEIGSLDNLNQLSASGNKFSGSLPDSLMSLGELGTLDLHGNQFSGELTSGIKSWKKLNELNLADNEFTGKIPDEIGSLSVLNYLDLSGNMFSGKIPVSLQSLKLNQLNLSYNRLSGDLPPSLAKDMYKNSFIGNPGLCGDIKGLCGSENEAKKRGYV
The target in test [2] is T1, BAM1 (BARELY ANY MERISTEM 1) ectodomain (Arabidopsis, UniProt O49545 20-637).
T1 chain: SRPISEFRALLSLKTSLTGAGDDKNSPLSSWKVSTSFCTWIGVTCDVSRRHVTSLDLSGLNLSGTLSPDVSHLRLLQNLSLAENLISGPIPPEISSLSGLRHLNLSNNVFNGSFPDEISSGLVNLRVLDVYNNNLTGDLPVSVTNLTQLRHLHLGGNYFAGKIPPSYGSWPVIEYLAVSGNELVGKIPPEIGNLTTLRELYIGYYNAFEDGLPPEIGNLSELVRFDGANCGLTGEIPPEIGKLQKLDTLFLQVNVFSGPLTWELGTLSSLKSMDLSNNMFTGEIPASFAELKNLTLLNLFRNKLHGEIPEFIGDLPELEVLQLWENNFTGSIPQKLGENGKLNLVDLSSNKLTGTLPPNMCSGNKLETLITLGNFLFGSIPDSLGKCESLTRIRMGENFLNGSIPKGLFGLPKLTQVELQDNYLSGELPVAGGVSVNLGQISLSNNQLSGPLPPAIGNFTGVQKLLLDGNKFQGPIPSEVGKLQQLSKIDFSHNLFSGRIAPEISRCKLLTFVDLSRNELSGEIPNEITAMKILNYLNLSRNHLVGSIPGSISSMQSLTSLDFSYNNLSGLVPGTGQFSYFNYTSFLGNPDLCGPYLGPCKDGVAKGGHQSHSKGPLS
In words: ITC.

In test [3] the target is T2, BAM1 (BARELY ANY MERISTEM 1) ectodomain (Arabidopsis, UniProt O49545 20-637).
T2 construct: BAM1 LRR receptor kinase ectodomain, Arabidopsis, residues 20-637, AT5G65700; codon optimised; secreted with an azurocidin or Drosophila BiP signal peptide; also called BAM1 extracellular domain; BAM1 LRR ectodomain; source: Trichoplusia ni Tnao38 cells (baculovirus), secreted, purified (Ni2+, Strep-Tactin, TEV cleavage, second Ni2+, SEC)
T2 sequence (looked up): T1 chain
In words: ITC; peptide (75 to 600 µM) injected into 10 to 30 µM HSL1 or BAM1 ectodomain in the cell; 25 °C; 20 mM sodium citrate pH 5.0, 150 mM NaCl; N fitted to 1. The note with it: both partners purified.

Test [4] deals with T1, BAM1 (BARELY ANY MERISTEM 1) ectodomain. The test is described as follows: ITC; R109P L110I.

Molecule “IDA^K66AR67AH68A peptide (from UniProt Q8LAD7 58-69)” gave a fold reduction of binding affinity against wild-type IDA in test [1] of 15 fold.

B1: CLE9^Hyp112PHyp115P peptide (peptide, UniProt Q9FZE4 109-120, looked up)
peptide: RLVPSGPNPLHN
modifications: Pro112 and Pro115 not hydroxylated
notes: CLE9 mature dodecapeptide with plain proline at 112 and 115 in place of hydroxyproline; also called CLE9 with Hyp in positions 4 and 7 replaced by Pro
For orientation: Kd means the constant that tells how readily two partners part at equilibrium. A lower Kd goes with tighter binding. With B1, the Kd is 3 nM in test [2] and around 5 nM in test [3].

B2: CLE9 variant with the second residue substituted by the corresponding one of IDA (peptide)
chain: RIVPSGPNPLHN
In test [4], B2 returned a Kd of 129 nM.

B3: CLE9^V111P peptide (peptide, UniProt Q9FZE4 109-120, looked up)
peptide: RLPPSGPNPLHN
notes: CLE9 mature dodecapeptide with Val111 changed to Pro; also called replacement of the third Val by a Pro
B3: the affinity in test [3], expressed as Kd, was 3000 nM.
